Source: US20200131230A1 (published 2020)
Read-outs that look alike come from different tables or passages of the source. Positions of bridges follow the written chain, without caps; N, C: chain ends. Non-standard residues stand in square brackets, D forms with d. 2Nal = N[C@@H](Cc1ccc2ccccc2c1)C(=O)O; Nle = CCCC[C@H](N)C(=O)O; 4CF = not defined here; DCF = not defined here; HF = not defined here

B1: Compound 16 (peptide)
peptide: {CH2CO}-WISGKNWVKWVC-NH2
modifications: thioether N-12
SMILES: CC[C@H](C)[C@@H]1NC(=O)[C@H](Cc2c[nH]c3ccccc23)NC(=O)CSC[C@@H](C(N)=O)NC(=O)[C@H](C(C)C)NC(=O)[C@H](Cc2c[nH]c3ccccc23)NC(=O)[C@H](CCCCN)NC(=O)[C@H](C(C)C)NC(=O)[C@H](Cc2c[nH]c3ccccc23)NC(=O)[C@H](CC(N)=O)NC(=O)[C@H](CCCCN)NC(=O)CNC(=O)[C@H](CO)NC1=O
B2: Compound 17 (peptide)
peptide: {CH2CO}-FITGKNWVKWVC-NH2
modifications: thioether N-12
SMILES: CC[C@H](C)[C@@H]1NC(=O)[C@H](Cc2ccccc2)NC(=O)CSC[C@@H](C(N)=O)NC(=O)[C@H](C(C)C)NC(=O)[C@H](Cc2c[nH]c3ccccc23)NC(=O)[C@H](CCCCN)NC(=O)[C@H](C(C)C)NC(=O)[C@H](Cc2c[nH]c3ccccc23)NC(=O)[C@H](CC(N)=O)NC(=O)[C@H](CCCCN)NC(=O)CNC(=O)[C@H]([C@@H](C)O)NC1=O
B3: Compound 18 (peptide)
peptide: {CH2CO}-FISGKTWVKWVC-NH2
modifications: thioether N-12
SMILES: CC[C@H](C)[C@@H]1NC(=O)[C@H](Cc2ccccc2)NC(=O)CSC[C@@H](C(N)=O)NC(=O)[C@H](C(C)C)NC(=O)[C@H](Cc2c[nH]c3ccccc23)NC(=O)[C@H](CCCCN)NC(=O)[C@H](C(C)C)NC(=O)[C@H](Cc2c[nH]c3ccccc23)NC(=O)[C@H]([C@@H](C)O)NC(=O)[C@H](CCCCN)NC(=O)CNC(=O)[C@H](CO)NC1=O
B4: Compound 19 (peptide)
peptide: {CH2CO}-FISGKNWMKWVC-NH2
modifications: thioether N-12
SMILES: CC[C@H](C)[C@@H]1NC(=O)[C@H](Cc2ccccc2)NC(=O)CSC[C@@H](C(N)=O)NC(=O)[C@H](C(C)C)NC(=O)[C@H](Cc2c[nH]c3ccccc23)NC(=O)[C@H](CCCCN)NC(=O)[C@H](CCSC)NC(=O)[C@H](Cc2c[nH]c3ccccc23)NC(=O)[C@H](CC(N)=O)NC(=O)[C@H](CCCCN)NC(=O)CNC(=O)[C@H](CO)NC1=O
B5: Compound 20 (peptide)
peptide: {CH2CO}-WISGKTWVKWVC-NH2
modifications: thioether N-12
SMILES: CC[C@H](C)[C@@H]1NC(=O)[C@H](Cc2c[nH]c3ccccc23)NC(=O)CSC[C@@H](C(N)=O)NC(=O)[C@H](C(C)C)NC(=O)[C@H](Cc2c[nH]c3ccccc23)NC(=O)[C@H](CCCCN)NC(=O)[C@H](C(C)C)NC(=O)[C@H](Cc2c[nH]c3ccccc23)NC(=O)[C@H]([C@@H](C)O)NC(=O)[C@H](CCCCN)NC(=O)CNC(=O)[C@H](CO)NC1=O
B6: Compound 21 (peptide)
peptide: {CH2CO}-FISGKNWMRWVC-NH2
modifications: thioether N-12
SMILES: CC[C@H](C)[C@@H]1NC(=O)[C@H](Cc2ccccc2)NC(=O)CSC[C@@H](C(N)=O)NC(=O)[C@H](C(C)C)NC(=O)[C@H](Cc2c[nH]c3ccccc23)NC(=O)[C@H](CCCNC(=N)N)NC(=O)[C@H](CCSC)NC(=O)[C@H](Cc2c[nH]c3ccccc23)NC(=O)[C@H](CC(N)=O)NC(=O)[C@H](CCCCN)NC(=O)CNC(=O)[C@H](CO)NC1=O
B7: Compound 22 (peptide)
peptide: {CH2CO}-WISGKTWVRWVC-NH2
modifications: thioether N-12
SMILES: CC[C@H](C)[C@@H]1NC(=O)[C@H](Cc2c[nH]c3ccccc23)NC(=O)CSC[C@@H](C(N)=O)NC(=O)[C@H](C(C)C)NC(=O)[C@H](Cc2c[nH]c3ccccc23)NC(=O)[C@H](CCCNC(=N)N)NC(=O)[C@H](C(C)C)NC(=O)[C@H](Cc2c[nH]c3ccccc23)NC(=O)[C@H]([C@@H](C)O)NC(=O)[C@H](CCCCN)NC(=O)CNC(=O)[C@H](CO)NC1=O
B8: Compound 23 (peptide)
peptide: {CH2CO}-WISGRTWVKWVC-NH2
modifications: thioether N-12
SMILES: CC[C@H](C)[C@@H]1NC(=O)[C@H](Cc2c[nH]c3ccccc23)NC(=O)CSC[C@@H](C(N)=O)NC(=O)[C@H](C(C)C)NC(=O)[C@H](Cc2c[nH]c3ccccc23)NC(=O)[C@H](CCCCN)NC(=O)[C@H](C(C)C)NC(=O)[C@H](Cc2c[nH]c3ccccc23)NC(=O)[C@H]([C@@H](C)O)NC(=O)[C@H](CCCNC(=N)N)NC(=O)CNC(=O)[C@H](CO)NC1=O
B9: Compound 25 (peptide)
peptide: {CH2CO}-[4CF]ISGRNWVKWVC-NH2
modifications: thioether N-12; reading uncertain
B10: Compound 26 (peptide)
peptide: {CH2CO}-FISGRNW[Nle]KWVC-NH2
modifications: thioether N-12
SMILES: CCCC[C@@H]1NC(=O)[C@H](Cc2c[nH]c3ccccc23)NC(=O)[C@H](CC(N)=O)NC(=O)[C@H](CCCNC(=N)N)NC(=O)CNC(=O)[C@H](CO)NC(=O)[C@H]([C@@H](C)CC)NC(=O)[C@H](Cc2ccccc2)NC(=O)CSC[C@@H](C(N)=O)NC(=O)[C@H](C(C)C)NC(=O)[C@H](Cc2c[nH]c3ccccc23)NC(=O)[C@H](CCCCN)NC1=O
B11: Compound 27 (peptide)
peptide: {CH2CO}-[2Nal]FSGRNWVKWVC-NH2
modifications: thioether N-12
SMILES: CC(C)[C@@H]1NC(=O)[C@H](Cc2c[nH]c3ccccc23)NC(=O)[C@H](CCCCN)NC(=O)[C@H](C(C)C)NC(=O)[C@H](Cc2c[nH]c3ccccc23)NC(=O)[C@H](CC(N)=O)NC(=O)[C@H](CCCNC(=N)N)NC(=O)CNC(=O)[C@H](CO)NC(=O)[C@H](Cc2ccccc2)NC(=O)[C@H](Cc2ccc3ccccc3c2)NC(=O)CSC[C@@H](C(N)=O)NC1=O
B12: Compound 29 (peptide)
peptide: {CH2CO}-[2Nal]ISGRNWVK[2Nal]VC-NH2
modifications: thioether N-12
SMILES: CC[C@H](C)[C@@H]1NC(=O)[C@H](Cc2ccc3ccccc3c2)NC(=O)CSC[C@@H](C(N)=O)NC(=O)[C@H](C(C)C)NC(=O)[C@H](Cc2ccc3ccccc3c2)NC(=O)[C@H](CCCCN)NC(=O)[C@H](C(C)C)NC(=O)[C@H](Cc2c[nH]c3ccccc23)NC(=O)[C@H](CC(N)=O)NC(=O)[C@H](CCCNC(=N)N)NC(=O)CNC(=O)[C@H](CO)NC1=O
B13: Compound 31 (peptide)
peptide: {CH2CO}-[2Nal][4CF]SGRNWVKWVC-NH2
modifications: thioether N-12; reading uncertain
B14: Compound 32 (peptide)
peptide: {CH2CO}-[2Nal][HF]SGRNWVKWVC-NH2
modifications: thioether N-12; reading uncertain
B15: Compound 33 (peptide)
peptide: {CH2CO}-[2Nal]WSGRNWVKWVC-NH2
modifications: thioether N-12
SMILES: CC(C)[C@@H]1NC(=O)[C@H](Cc2c[nH]c3ccccc23)NC(=O)[C@H](CCCCN)NC(=O)[C@H](C(C)C)NC(=O)[C@H](Cc2c[nH]c3ccccc23)NC(=O)[C@H](CC(N)=O)NC(=O)[C@H](CCCNC(=N)N)NC(=O)CNC(=O)[C@H](CO)NC(=O)[C@H](Cc2c[nH]c3ccccc23)NC(=O)[C@H](Cc2ccc3ccccc3c2)NC(=O)CSC[C@@H](C(N)=O)NC1=O
B16: Compound 34 (peptide)
peptide: {CH2CO}-[DCF][2Nal]SGRNWVKWVC-NH2
modifications: thioether N-12; reading uncertain
B17: Compound 35 (peptide)
peptide: {CH2CO}-[2Nal]ISGRN[6CW]VKWVC-NH2
modifications: thioether N-12
B18: Compound 36 (peptide)
peptide: {CH2CO}-[2Nal]ISGRNWVK[6CW]VC-NH2
modifications: thioether N-12
B19: Compound 37 (peptide)
peptide: {CH2CO}-[2Nal]ISGRNWVKW[HF]C-NH2
modifications: thioether N-12; reading uncertain
B20: Compound 38 (peptide)
peptide: {CH2CO}-[2Nal]ISGRNW[Nle]KWVC-NH2
modifications: thioether N-12
SMILES: CCCC[C@@H]1NC(=O)[C@H](Cc2c[nH]c3ccccc23)NC(=O)[C@H](CC(N)=O)NC(=O)[C@H](CCCNC(=N)N)NC(=O)CNC(=O)[C@H](CO)NC(=O)[C@H]([C@@H](C)CC)NC(=O)[C@H](Cc2ccc3ccccc3c2)NC(=O)CSC[C@@H](C(N)=O)NC(=O)[C@H](C(C)C)NC(=O)[C@H](Cc2c[nH]c3ccccc23)NC(=O)[C@H](CCCCN)NC1=O
B21: Compound 39 (peptide)
peptide: {CH2CO}-[2Nal]ISGRNW[Nle]KWFC-NH2
modifications: thioether N-12
SMILES: CCCC[C@@H]1NC(=O)[C@H](Cc2c[nH]c3ccccc23)NC(=O)[C@H](CC(N)=O)NC(=O)[C@H](CCCNC(=N)N)NC(=O)CNC(=O)[C@H](CO)NC(=O)[C@H]([C@@H](C)CC)NC(=O)[C@H](Cc2ccc3ccccc3c2)NC(=O)CSC[C@@H](C(N)=O)NC(=O)[C@H](Cc2ccccc2)NC(=O)[C@H](Cc2c[nH]c3ccccc23)NC(=O)[C@H](CCCCN)NC1=O
B22: Compound 8 (peptide)
peptide: {CH2CO}-FRSGRNWVRWVC-NH2
modifications: thioether N-12
SMILES: CC(C)[C@@H]1NC(=O)[C@H](Cc2c[nH]c3ccccc23)NC(=O)[C@H](CCCNC(=N)N)NC(=O)[C@H](C(C)C)NC(=O)[C@H](Cc2c[nH]c3ccccc23)NC(=O)[C@H](CC(N)=O)NC(=O)[C@H](CCCNC(=N)N)NC(=O)CNC(=O)[C@H](CO)NC(=O)[C@H](CCCNC(=N)N)NC(=O)[C@H](Cc2ccccc2)NC(=O)CSC[C@@H](C(N)=O)NC1=O

What was measured:
[1] = target: T1, Thrombospondin human platelet (Calbiochem, 605225) (human, UniProt P07996 19-1170); experiment: cell-based or functional assay
T1 sequence (P07996 19-1170 limits assumed): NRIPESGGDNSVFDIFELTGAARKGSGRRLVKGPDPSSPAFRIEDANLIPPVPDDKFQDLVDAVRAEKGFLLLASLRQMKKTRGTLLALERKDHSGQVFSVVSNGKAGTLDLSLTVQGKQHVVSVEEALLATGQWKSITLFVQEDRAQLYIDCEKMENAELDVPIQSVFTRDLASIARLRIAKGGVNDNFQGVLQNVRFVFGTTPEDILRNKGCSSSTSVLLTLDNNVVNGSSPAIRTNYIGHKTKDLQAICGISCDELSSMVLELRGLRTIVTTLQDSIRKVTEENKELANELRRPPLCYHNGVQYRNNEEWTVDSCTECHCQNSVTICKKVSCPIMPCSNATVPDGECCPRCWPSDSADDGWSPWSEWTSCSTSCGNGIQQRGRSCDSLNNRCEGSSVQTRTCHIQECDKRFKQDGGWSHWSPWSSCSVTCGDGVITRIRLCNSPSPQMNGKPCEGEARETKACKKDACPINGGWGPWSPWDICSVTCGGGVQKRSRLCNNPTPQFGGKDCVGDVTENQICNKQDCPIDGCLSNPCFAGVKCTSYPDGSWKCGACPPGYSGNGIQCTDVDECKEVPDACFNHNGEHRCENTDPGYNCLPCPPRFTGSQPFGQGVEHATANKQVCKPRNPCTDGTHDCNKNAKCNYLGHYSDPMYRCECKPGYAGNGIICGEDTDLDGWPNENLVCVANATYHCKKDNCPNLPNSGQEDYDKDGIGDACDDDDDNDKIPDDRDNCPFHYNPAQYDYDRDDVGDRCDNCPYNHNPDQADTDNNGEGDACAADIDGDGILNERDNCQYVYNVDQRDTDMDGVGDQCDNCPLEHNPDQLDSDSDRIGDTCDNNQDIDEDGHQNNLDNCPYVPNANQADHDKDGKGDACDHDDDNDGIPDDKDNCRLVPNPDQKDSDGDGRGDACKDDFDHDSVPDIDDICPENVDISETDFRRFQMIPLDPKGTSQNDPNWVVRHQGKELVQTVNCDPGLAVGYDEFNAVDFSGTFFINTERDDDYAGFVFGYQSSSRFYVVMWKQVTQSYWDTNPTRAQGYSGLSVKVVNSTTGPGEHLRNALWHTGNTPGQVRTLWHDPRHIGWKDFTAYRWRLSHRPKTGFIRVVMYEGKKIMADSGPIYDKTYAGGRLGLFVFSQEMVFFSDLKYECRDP

[2] = target: T1, Thrombospondin human platelet …; experiment: cell-based or functional assay; remark: listed apart in the source

Binder | Cell adhesion IC50 [1] [nM] | Cell adhesion IC50 [2] [nM]
B1 | 21 | 
B2 | 17.7 | 
B3 | 13 | 
B4 | 14.1 | 
B5 | 13.1 | 
B6 | 21.3 | 
B7 | 20.3 | 
B8 | 15.6 | 
B9 | 7.9 | 
B10 |  | 7
B11 |  | 32.8
B12 |  | 17.6
B13 |  | 32.5
B14 |  | 25.9
B15 |  | 20.7
B16 |  | 28.1
B17 |  | 26
B18 |  | 17.2
B19 |  | 19.6
B20 |  | 9.2
B21 |  | 16.3
B22 | 33.4 | 
